According to article PMC2229591:

Columns and labels:
[1] = molecular target: C0 fragment of cardiac myosin binding protein C (MyBP-C) (human); test: pull-down + co-IP
[2] = molecular target: filamentous actin (rabbit muscle) (rabbit) (UniProt P68135); test: co-sedimentation; conditions: scale: actin per fragment

| concentration that gives half-maximum binding [1] | stoichiometry N [2] | Substance |
| --- | --- | --- |
| < 10 µM | – | filamentous actin (rabbit muscle) (from UniProt P68135 1-377) (natural protein) |
| – | 7 | C0C2 fragment of cardiac MyBP-C (domain or fragment) |
